According to the RNAGym collection of RNA variant scans (doi:10.7554/elife.90254):

B1: LINE1-mini (parent)
chain: GGCAGAGCUCAACACAGCGUGGCAAAGUGGCUGUGGCUAGACUGCC

Variants of: B1
Experiment: self-cleavage, relative activity (ratio to wild type); higher = more cleavage; in vitro, sequencing; the parent is a self-cleaving ribozyme

In order of rising self-cleavage:
1. A12C A26C  0.02
2. G27C U38G  0.02
3. A12C C18G  0.02
4. G30C U43G  0.02
5. U9G A12G  0.02
6. A12G U20G  0.02
7. C10A A12G  0.02
8. G1C C31A  0.02
9. C23A U38G  0.02
10. A11G A25U  0.02
11. A11U C42U  0.02
12. C31G G35U  0.03
13. A12G G36U  0.03
14. U9C U38A  0.03
15. G1C G40C  0.03
16. G17C C42G  0.03
17. U9C C10A  0.03
18. A11G A16U  0.03
19. C13G G17C  0.03
20. A6G C31U  0.03
21. A12C C15U  0.03
22. A11G U34C  0.03
23. A6G C37U  0.03
24. A11C G17U  0.03
25. A12G A14U  0.03
26. A39G A41C  0.03
27. A12C G27C  0.03
28. A12G G22A  0.03
29. G2U G40A  0.03
30. A11G G22A  0.03
31. A26G U34G  0.03
32. A4U U38G  0.03
33. A16C A41C  0.03
34. A11G C13U  0.03
35. C13A U38G  0.03
36. A12C C45A  0.03
37. A11U C42A  0.03
38. G1C C42U  0.04
39. A25G A41C  0.04
40. C8G C18A  0.04
41. U34G A41C  0.04
42. A16U U43C  0.04
43. A12G C18G  0.04
44. C18A C31U  0.04
45. G5C C10U  0.04
46. A14U C31G  0.04
47. G2U C23G  0.04
48. A11C G30C  0.04
49. G1C U28A  0.04
50. U32G C37G  0.04
51. A11U A12C  0.04
52. A11C U34G  0.04
53. G2U C15A  0.04
54. G1C A6C  0.04
55. A16U G35U  0.04
56. U34A U43G  0.04
57. G1U C31G  0.04
58. C15A C31U  0.04
59. A12C A14G  0.04
60. C10A C31U  0.04
61. G7U C10A  0.04
62. U20C C37A  0.04
63. C37U U38A  0.04
64. C18G G33A  0.04
65. G5C U20A  0.04
66. C37G C46U  0.04
67. A12U G33U  0.04
68. A16C C18G  0.04
69. G7A C37G  0.05
70. A11U U34C  0.05
71. A25C U32G  0.05
72. A41G G44C  0.05
73. A4U A41G  0.05
74. G5A C15G  0.05
75. C15G C45U  0.05
76. G22U C37U  0.05
77. A26C A39G  0.05
78. G5U C37U  0.05
79. U20C U32A  0.05
80. U32C U34A  0.05
81. A24C G40C  0.05
82. G7C U32A  0.05
83. A16G G33C  0.05
84. A6G C15A  0.05
85. U9C C13A  0.05
86. A11U A39U  0.05
87. A24C U34G  0.05
88. U32A G36U  0.05
89. G2U U20G  0.05
90. A6G U28A  0.05
91. C10G G44A  0.05
92. U38C A39G  0.06
93. A6U A11C  0.06
94. C23U A41C  0.06
95. C18A U34C  0.06
96. A24G C42G  0.06
97. C10U A16C  0.06
98. C37A C46G  0.06
99. U9C G35A  0.06
100. G29C G35U  0.06
101. G5U A39C  0.06
102. G30C U43A  0.06
103. A14U C31A  0.06
104. G5C A26C  0.06
105. G2C G29C  0.06
106. A26U G40C  0.06
107. C13U A41C  0.06
108. U38G G44C  0.06
109. C13U G27C  0.06
110. A14C G22U  0.06
111. G5A U32A  0.06
112. C23A C42G  0.06
113. C13U A25G  0.07
114. G5U C46U  0.07
115. G2C C42U  0.07
116. U28G G35C  0.07
117. G17A A39C  0.07
118. A26U A41C  0.07
119. G17C G40U  0.07
120. G1U C31U  0.07
121. G17U G35U  0.07
122. A14G G33A  0.07
123. A25C G36C  0.07
124. A25G G40U  0.07
125. A14C C42U  0.07
126. G7A U20C  0.07
127. G17C A26G  0.07
128. G35A U43C  0.07
129. G40C C42A  0.07
130. G21U U43A  0.08
131. G7A C31G  0.08
132. U32A U43A  0.08
133. C13A G27U  0.08
134. A25C A39C  0.08
135. G40C C46G  0.08
136. A4U C18G  0.08
137. C13A A24U  0.08
138. C13A U32G  0.08
139. A14C C15A  0.08
140. G33U U34A  0.08
141. U20C A41C  0.08
142. C8G U34G  0.08
143. G2C A24G  0.09
144. G33C U34A  0.09
145. C13U C42U  0.09
146. C3G A11G  0.09
147. U20G G33A  0.09
148. G35A C42U  0.09
149. A12U A41G  0.09
150. G7U G36C  0.09
151. U34A G36A  0.09
152. G7U C15G  0.09
153. G7C C23A  0.09
154. U32G G33C  0.09
155. A16U C42U  0.09
156. C15A G17U  0.09
157. A6G G17A  0.09
158. C3U A41C  0.09
159. A6U G33A  0.1
160. G7U A39U  0.1
161. U9A G36U  0.1
162. U9A A39U  0.1
163. C31U C45G  0.1
164. G1A A14C  0.1
165. C10U C42U  0.1
166. A25C G40A  0.1
167. U34G C42U  0.1
168. A25G C31A  0.1
169. A4U C13G  0.1
170. C15A U28A  0.1
171. G33A C45A  0.1
172. A6C U34C  0.11
173. A11U A25C  0.11
174. U9G C46U  0.11
175. G21U G40C  0.11
176. C8G A26U  0.11
177. G7A G19U  0.11
178. A14C C45G  0.11
179. A4U C18U  0.11
180. G5U G27U  0.11
181. A4C A6U  0.11
182. G35U A39C  0.11
183. A14U G33U  0.12
184. C3A U34G  0.12
185. G7U G40C  0.12
186. A26G A41C  0.12
187. A16C C23A  0.12
188. U28A C42A  0.12
189. G35C U43C  0.12
190. A6C C13A  0.12
191. G21C U34A  0.12
192. A24U U32G  0.12
193. C15A G21U  0.12
194. A4U U38A  0.12
195. G40U C46A  0.12
196. U28G G36A  0.12
197. A4G G33A  0.12
198. U20G G40U  0.13
199. U43A C46U  0.13
200. G2A G33U  0.13
201. C31G U43A  0.13
202. C8U G17U  0.14
203. C8U G27A  0.14
204. G5A G22U  0.14
205. U38A A41G  0.14
206. C3U C13G  0.14
207. G22A G35U  0.14
208. C3G A25G  0.14
209. C31U U38C  0.14
210. A6G G7C  0.14
211. A14G G35U  0.15
212. A16G G17A  0.15
213. G2A A14C  0.15
214. A4U G19U  0.15
215. G2U C23U  0.15
216. A6G C45A  0.15
217. A4U C45G  0.15
218. G7U A14G  0.15
219. C8U G22C  0.15
220. G2U A6U  0.16
221. A26C G35C  0.16
222. A24C C45A  0.16
223. A16G C18A  0.16
224. A25U U34A  0.16
225. G29A U43A  0.16
226. U34G U38C  0.16
227. C8U G22U  0.16
228. G17A G22C  0.17
229. U9A A14G  0.17
230. G22C C45G  0.17
231. A16C G19A  0.18
232. G7C C46A  0.18
233. C8A A14C  0.18
234. G21U C45G  0.18
235. A6G C45G  0.18
236. C3G C15A  0.18
237. G27U U32C  0.19
238. A14U U20C  0.19
239. A24U G40U  0.19
240. U9A G40A  0.19
241. U32C A41U  0.2
242. A24G U43C  0.2
243. A6C C18A  0.2
244. U34A U38C  0.2
245. A14U G44C  0.2
246. C10U C46U  0.21
247. U9A A39G  0.21
248. C8A C31U  0.21
249. C10G G30U  0.22
250. A4G C42U  0.22
251. C8A C15G  0.22
252. U20C U38C  0.22
253. A4G U9G  0.23
254. G35U C37A  0.23
255. G5A A24G  0.23
256. C42U C46U  0.24
257. C23G U43C  0.24
258. G1U A4G  0.25
259. C13U G21C  0.25
260. G1U C3G  0.25
261. G27A C42U  0.26
262. A6C C8A  0.26
263. G17A U28A  0.26
264. G2A G5U  0.27
265. A14C G17U  0.28
266. C3G G35U  0.28
267. C13U U28C  0.28
268. G7A G44C  0.28
269. C8U  0.29
270. C3A C46G  0.29
271. C13G C23A  0.29
272. A11G G29C  0.3
273. A4G C31G  0.31
274. C8A G40U  0.34
275. C3U G29U  0.34
276. G2A G40A  0.35
277. A26U A41G  0.37
278. A25U A41G  0.38
279. C8U G21A  0.39
280. C8U G44A  0.39
281. A4G C46A  0.4
282. C23G G44A  0.41
283. G19U A41U  0.41
284. C8A G35A  0.42
285. C10U C23U  0.43
286. C18G A24G  0.44
287. G2A C42U  0.44
288. G21U G27A  0.45
289. G19U A24G  0.45
290. U20A G29U  0.45
291. G2A G21C  0.46
292. A12U G30C  0.46
293. G2A C18U  0.46
294. G19C C45A  0.47
295. G22A A24C  0.48
296. C3G C13A  0.48
297. C3G A24G  0.5
298. A16G A26U  0.52
299. U28G G29C  0.53
300. A25C G27A  0.55
301. A41U C45U  0.55
302. A6U G22A  0.57
303. A14U A39U  0.57
304. U38C  0.6
305. U20G A24G  0.61
306. A14G U34C  0.61
307. A6C C23U  0.62
308. G22U G33A  0.63
309. G17U U20C  0.64
310. G2A A41U  0.66
311. C3A A26G  0.67
312. G22C G27A  0.75
313. G2A G44U  0.75
314. C18G A24U  0.76
315. A24C G27A  0.77
316. U20A A25U  0.77
317. A25U A39U  0.86
318. C23U G27U  0.87
319. A26C G44A  0.87
320. G19C G30C  1
321. C23A  1.01
322. C18G G27A  1.04
323. G1A G29U  1.1
324. G17C U28A  1.16
325. C18U C46G  1.24
326. G21U A26C  1.29
327. A24U A25U  1.48
328. G19A C46G  1.53
329. G17C C23U  1.61
330. G30A A39U  1.69
331. A24U G29A  1.72
332. G1A G27A  1.81
333. G1A G22C  1.94
334. G21A  2.19
